Earlier results on one substance are cited in paper PMC10616597.

For the data set, the target named is TLR4 (Homo sapiens) (UniProt O00206).
Sequence of UniProt O00206 (O00206 24-839): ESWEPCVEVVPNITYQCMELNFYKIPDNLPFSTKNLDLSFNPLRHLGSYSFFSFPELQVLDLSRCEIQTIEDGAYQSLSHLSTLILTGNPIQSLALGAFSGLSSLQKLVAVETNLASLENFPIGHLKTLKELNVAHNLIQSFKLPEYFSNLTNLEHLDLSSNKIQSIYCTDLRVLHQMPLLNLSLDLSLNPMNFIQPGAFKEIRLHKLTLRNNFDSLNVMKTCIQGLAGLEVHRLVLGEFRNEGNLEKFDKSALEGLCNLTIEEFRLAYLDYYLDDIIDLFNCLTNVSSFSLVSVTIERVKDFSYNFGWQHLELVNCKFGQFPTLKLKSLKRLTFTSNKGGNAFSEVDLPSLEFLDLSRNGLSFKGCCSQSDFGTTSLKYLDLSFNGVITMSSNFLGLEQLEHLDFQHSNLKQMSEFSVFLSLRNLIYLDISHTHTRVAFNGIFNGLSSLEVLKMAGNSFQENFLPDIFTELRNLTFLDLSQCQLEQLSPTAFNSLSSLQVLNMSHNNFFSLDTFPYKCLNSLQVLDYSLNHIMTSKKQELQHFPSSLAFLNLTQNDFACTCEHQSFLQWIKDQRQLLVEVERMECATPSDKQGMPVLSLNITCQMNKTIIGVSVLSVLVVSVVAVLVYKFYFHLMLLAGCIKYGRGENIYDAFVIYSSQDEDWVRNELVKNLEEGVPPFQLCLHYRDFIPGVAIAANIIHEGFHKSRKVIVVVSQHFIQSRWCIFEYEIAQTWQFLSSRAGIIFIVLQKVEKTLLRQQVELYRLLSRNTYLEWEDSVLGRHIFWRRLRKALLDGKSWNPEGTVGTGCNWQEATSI

One may read the Kd as the equilibrium constant for the complex coming apart. On to eNAMPT (from UniProt P43490), for which the Kd was 18 nM.
